Target: Human α-defensin 5 (human)
Test: SPR

molar ratio: 1 | stoichiometry N: 2
Substance: Human α-defensin 5 (peptide)

From publication PMC4332406
